Test results taken from IntAct's records for PubMed 29039417.

B1: BBSome complex member BBS1 (Homo sapiens), Q8NFJ9 (parent)
chain: MAAASSSDSDACGAESNEANSKWLDAHYDPMANIHTFSACLALADLHGDGEYKLVVGDLGPGGQQPRLKVLKGPLVMTESPLPALPAAAATFLMEQHEPRTPALALASGPCVYVYKNLRPYFKFSLPQLPPNPLEQDLWNQAKEDRIDPLTLKEMLESIRETAEEPLSIQSLRFLQLELSEMEAFVNQHKSNSIKRQTVITTMTTLKKNLADEDAVSCLVLGTENKELLVLDPEAFTILAKMSLPSVPVFLEVSGQFDVEFRLAAACRNGNIYILRRDSKHPKYCIELSAQPVGLIRVHKVLVVGSTQDSLHGFTHKGKKLWTVQMPAAILTMNLLEQHSRGLQAVMAGLANGEVRIYRDKALLNVIHTPDAVTSLCFGRYGREDNTLIMTTRGGGLIIKILKRTAVFVEGGSEVGPPPAQAMKLNVPRKTRLYVDQTLREREAGTAMHRAFQTDLYLLRLRAARAYLQALESSLSPLSTTAREPLKLHAVVQGLGPTFKLTLHLQNTSTTRPVLGLLVCFLYNEALYSLPRAFFKVPLLVPGLNYPLETFVESLSNKGISDIIKVLVLREGQSAPLLSAHVNMPGSEGLAAA
partner: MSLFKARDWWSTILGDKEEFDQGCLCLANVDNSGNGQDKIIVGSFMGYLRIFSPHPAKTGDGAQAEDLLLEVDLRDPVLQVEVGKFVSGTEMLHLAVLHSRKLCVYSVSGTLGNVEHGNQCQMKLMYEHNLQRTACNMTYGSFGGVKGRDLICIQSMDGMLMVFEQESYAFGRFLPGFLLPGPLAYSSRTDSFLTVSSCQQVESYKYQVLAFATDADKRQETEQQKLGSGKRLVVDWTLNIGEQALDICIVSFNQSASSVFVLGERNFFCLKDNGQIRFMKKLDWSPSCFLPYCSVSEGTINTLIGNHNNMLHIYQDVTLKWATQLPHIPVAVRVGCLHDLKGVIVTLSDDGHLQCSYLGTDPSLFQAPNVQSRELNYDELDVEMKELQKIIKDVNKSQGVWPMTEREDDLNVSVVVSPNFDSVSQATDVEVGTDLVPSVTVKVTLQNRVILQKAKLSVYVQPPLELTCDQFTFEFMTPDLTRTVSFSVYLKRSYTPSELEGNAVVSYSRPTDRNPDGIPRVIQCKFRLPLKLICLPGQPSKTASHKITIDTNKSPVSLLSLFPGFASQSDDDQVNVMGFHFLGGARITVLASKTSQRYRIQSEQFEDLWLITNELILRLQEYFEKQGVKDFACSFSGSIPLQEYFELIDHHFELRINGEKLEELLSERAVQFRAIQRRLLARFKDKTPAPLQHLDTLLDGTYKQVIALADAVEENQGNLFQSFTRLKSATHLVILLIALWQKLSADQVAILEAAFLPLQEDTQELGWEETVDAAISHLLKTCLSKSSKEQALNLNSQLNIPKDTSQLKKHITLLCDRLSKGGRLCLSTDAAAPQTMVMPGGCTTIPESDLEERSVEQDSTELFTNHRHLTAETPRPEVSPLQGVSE

Variants of: B1
Settings: with pthb1_human BBS9, Q3SYG4

Effect of a mutation on the interaction, with no effect:
MAAASSSDSDACGAESNEANSKWLDAHYDPMANIHTFSACLALADLHGDGEYKLVVGDLGPGGQQPRLKVLKGPLVMTESPLPALPAAAATFLMEQHEPRTPALALASGPCVYVYKNLRPYFKFSLPQLPPNPLEQDLWNQAKEDRIDPLTLKEMLESIRETAEEPLSIQSLRFLQLELSEMEAFVNQHKSNSIKRQTVITTMTTLKKNLADEDAVSCLVLGTENKELLVLDPEAFTILAKMSLPSVPVFLEVSGQFDVEFRLAAACRNGNIYILRRDSKHPKYCIELSAQPVGLIRVHKVLVVGSTQDSLHGFTHKGKKLWTVQMPAAILTMNLLEQHSRGLQAVMAGLANGEVRIYRDKALLNVIHTPDAVTSLCFGRYGREDNTLIMTTRGGGLIIKILKRTAVFVEGGSEVGPPPAQAMKLNVPRKTRLYVDQTLREREAGTAMHRAFQTDLYLLRLRAARAYLQALESSLSPLSTTAREPLKLHAVVQGLGPTFKLTLHLQNESTTRPVLGLLVCFLYNEALYSLPRAFFKVPLLVPGLNYPLETFVESLSNKGISDIIKVLVLREGQSAPLLSAHVNMPGSEGLAAA [T508E]
MAAASSSDSDACGAESNEANSKWLDAHYDPMANIHTFSACLALADLHGDGEYKLVVGDLGPGGQQPRLKVLKGPLVMTESPLPALPAAAATFLMEQHEPRTPALALASGPCVYVYKNLRPYFKFSLPQLPPNPLEQDLWNQAKEDRIDPLTLKEMLESIRETAEEPLSIQSLRFLQLELSEMEAFVNQHKSNSIKRQTVITTMTTLKKNLADEDAVSCLVLGTENKELLVLDPEAFTILAKMSLPSVPVFLEVSGQFDVEFRLAAACRNGNIYILRRDSKHPKYCIELSAQPVGLIRVHKVLVVGSTQDSLHGFTHKGKKLWTVQMPAAILTMNLLEQHSRGLQAVMAGLANGEVRIYRDKALLNVIHTPDAVTSLCFGRYGREDNTLIMTTRGGGLIIKILKRTAVFVEGGSEVGPPPAQAMKLNVPRKTRLYVDQTLREREAGTAMHRAFQTDLYLLRLRAARAYLQALESSLSPLSTTAREPLKLHAVVQGLGPTFKLTLHLQNKSTTRPVLGLLVCFLYNEALYSLPRAFFKVPLLVPGLNYPLETFVESLSNKGISDIIKVLVLREGQSAPLLSAHVNMPGSEGLAAA [T508K]
MAAASSSDSDACGAESNEANSKWLDAHYDPMANIHTFSACLALADLHGDGEYKLVVGDLGPGGQQPRLKVLKGPLVMTESPLPALPAAAATFLMEQHEPRTPALALASGPCVYVYKNLRPYFKFSLPQLPPNPLEQDLWNQAKEDRIDPLTLKEMLESIRETAEEPLSIQSLRFLQLELSEMEAFVNQHKSNSIKRQTVITTMTTLKKNLADEDAVSCLVLGTENKELLVLDPEAFTILAKMSLPSVPVFLEVSGQFDVEFRLAAACRNGNIYILRRDSKHPKYCIELSAQPVGLIRVHKVLVVGSTQDSLHGFTHKGKKLWTVQMPAAILTMNLLEQHSRGLQAVMAGLANGEVRIYRDKALLNVIHTPDAVTSLCFGRYGREDNTLIMTTRGGGLIIKILKRTAVFVEGGSEVGPPPAQAMKLNVPRKTRLYVDQTLREREAGTAMHRAFQTDLYLLRLRAARAYLQALESSLSPLSTTAREPLKLHAVVQGLGPTFKLTLHLQNASTTRPVLGLLVCFLYNEALYSLPRAFFKVPLLVPGLNYPLETFVESLSNKGISDIIKVLVLREGQSAPLLSAHVNMPGSEGLAAA [T508A]
MAAASSSDSDACGAESNEANSKWLDAHYDPMANIHTFSACLALADLHGDGEYKLVVGDLGPGGQQPRLKVLKGPLVMTESPLPALPAAAATFLMEQHEPRTPALALASGPCVYVYKNLRPYFKFSLPQLPPNPLEQDLWNQAKEDRIDPLTLKEMLESIRETAEEPLSIQSLRFLQLELSEMEAFVNQHKSNSIKRQTVITTMTTLKKNLADEDAVSCLVLGTENKELLVLDPEAFTILAKMSLPSVPVFLEVSGQFDVEFRLAAACRNGNIYILRRDSKHPKYCIELSAQPVGLIRVHKVLVVGSTQDSLHGFTHKGKKLWTVQMPAAILTMNLLEQHSRGLQAVMAGLANGEVRIYRDKALLNVIHTPDAVTSLCFGRYGREDNTLIMTTRGGGLIIKILKRTAVFVEGGSEVGPPPAQAMKLNVPRKTRLYVDQTLREREAGTAMHRAFQTDLYLLRLRAARAYLQALESSLSPLSTTAREPLKLHAVVQGLGPTFKLTLHLENTSTTRPVLGLLVCFLYNEALYSLPRAFFKVPLLVPGLNYPLETFVESLSNKGISDIIKVLVLREGQSAPLLSAHVNMPGSEGLAAA [Q506E]
MAAASSSDSDACGAESNEANSKWLDAHYDPMANIHTFSACLALADLHGDGEYKLVVGDLGPGGQQPRLKVLKGPLVMTESPLPALPAAAATFLMEQHEPRTPALALASGPCVYVYKNLRPYFKFSLPQLPPNPLEQDLWNQAKEDRIDPLTLKEMLESIRETAEEPLSIQSLRFLQLELSEMEAFVNQHKSNSIKRQTVITTMTTLKKNLADEDAVSCLVLGTENKELLVLDPEAFTILAKMSLPSVPVFLEVSGQFDVEFRLAAACRNGNIYILRRDSKHPKYCIELSAQPVGLIRVHKVLVVGSTQDSLHGFTHKGKKLWTVQMPAAILTMNLLEQHSRGLQAVMAGLANGEVRIYRDKALLNVIHTPDAVTSLCFGRYGREDNTLIMTTRGGGLIIKILKRTAVFVEGGSEVGPPPAQAMKLNVPRKTRLYVDQTLREREAGTAMHRAFQTDLYLLRLRAARAYLQALESSLSPLSTTAREPLKLHAVVQGLGPTFKLTLHLKNTSTTRPVLGLLVCFLYNEALYSLPRAFFKVPLLVPGLNYPLETFVESLSNKGISDIIKVLVLREGQSAPLLSAHVNMPGSEGLAAA [Q506K]
